Measurements reported in article PMC5307791, “Thermus thermophilus as source of thermozymes for biotechnological applications: homologous expression and biochemical characterization of an α-galactosidase” (Microbial Cell Factories, 2017).

B1: TtGalA (Thermus thermophilus HB27) (protein)
chain: MRLNLGGAEVFLRAEGLEEAPGGVRLWGREVRVFPPFPAKGFFRHGWQSWSLAAWVDPAQAPTPLLPEARRPQADDPFLLEAGAWWGSGVGALRGPDGRALLLGALDLGARVLGREDLLLGRYAGEGGAWFLAHGPEEEVFAAYAQLLPRRLSGRPPRVWCSWYSFYTRIGEDLLLRVLDEVAAFSFEVFQIDDGWQRALGDWEPNDRFPRGMAFLAERIRERGLRPGLWFAPFLVTADSPLFQMRPDWVLRDGEGRPVRAGFNWGRPLYALDAGNEEVVEWAADLVRKALAWGYDYLKLDFLYAAALPGAEGEARYRRAMARLREAAGEAYLLFCGAPVLASLGLADGLRVGPDVAPYWDNEERSFWLADPTGPGLRNALRSTLHRLWLMENVHVDPDVVYFRTRFNLLSPEEMRLQEALAHFTGFKATSDPPSWLLPEEKGRLEAFLAREVPVRRLGPYRFRVGEEEVDYAPLL

How the values were obtained:
[1] = molecular target: α-galactosidase from Thermus thermophilus HB27 (TtGalA), N-terminally His-tagged, expressed in T. thermophilus HB27::nar (Thermus thermophilus HB27); experiment: SEC-MALS; size-exclusion chromatography (S200 16/60) with Mini DAWN Treos triple-angle light scattering and QELS; 500 µg of protein (1 mg/ml) loaded; 0.5 ml/min; buffer A (50 mM Tris-HCl pH 7.5, 500 mM NaCl)
[2] = substrate: O=[N+]([O-])c1ccc(O[C@H]2O[C@H](CO)[C@H](O)[C@H](O)[C@H]2O)cc1; experiment: purified protein; conditions: 90 °C, pH 6.0, 50 mM sodium phosphate

| Molecule | stoichiometry N [1] | Km [2] [µM] | Vmax [2] [µmol/min/mg] | kcat [2] [s⁻¹] |
| --- | --- | --- | --- | --- |
| α-galactosidase from Thermus thermophilus HB27 (TtGalA), N-terminally His-tagged, expressed in T. thermophilus HB27::nar (enzyme) | 6 |  |  |  |
| B1 |  | 690 ± 17 | 338 | 710 |
